The term Kd denotes the free concentration of one partner at which half of the binding sites on the other are occupied at equilibrium, for simple one-to-one binding. The stoichiometry N is a count of units in the complex or per binding partner.

The values below come from PMC4635569.

Like-named read-outs stand apart in the source and are kept apart here. Where only a bound is given, the exact number is not on record here.

The target of test [1] is plasma-derived human complement factor H (human) (UniProt P08603).
For test [2], the target named is human C3b (human) (UniProt P01024). The test can be described thus: SPR; C3b (~250 RU) or C3d (~70 RU) amine coupled to adjacent flow cells of a Biacore C1 chip; FH preincubated with or without a 2-fold molar excess of PspCN injected (90 s, 30 μl/min, 400 s dissociation); 1:1 binding model. In general terms: Surface plasmon resonance follows binding to a sensor surface in real time, without labels.
Chain of human C3b (human) (P01024 23-667, chain 1 of 2): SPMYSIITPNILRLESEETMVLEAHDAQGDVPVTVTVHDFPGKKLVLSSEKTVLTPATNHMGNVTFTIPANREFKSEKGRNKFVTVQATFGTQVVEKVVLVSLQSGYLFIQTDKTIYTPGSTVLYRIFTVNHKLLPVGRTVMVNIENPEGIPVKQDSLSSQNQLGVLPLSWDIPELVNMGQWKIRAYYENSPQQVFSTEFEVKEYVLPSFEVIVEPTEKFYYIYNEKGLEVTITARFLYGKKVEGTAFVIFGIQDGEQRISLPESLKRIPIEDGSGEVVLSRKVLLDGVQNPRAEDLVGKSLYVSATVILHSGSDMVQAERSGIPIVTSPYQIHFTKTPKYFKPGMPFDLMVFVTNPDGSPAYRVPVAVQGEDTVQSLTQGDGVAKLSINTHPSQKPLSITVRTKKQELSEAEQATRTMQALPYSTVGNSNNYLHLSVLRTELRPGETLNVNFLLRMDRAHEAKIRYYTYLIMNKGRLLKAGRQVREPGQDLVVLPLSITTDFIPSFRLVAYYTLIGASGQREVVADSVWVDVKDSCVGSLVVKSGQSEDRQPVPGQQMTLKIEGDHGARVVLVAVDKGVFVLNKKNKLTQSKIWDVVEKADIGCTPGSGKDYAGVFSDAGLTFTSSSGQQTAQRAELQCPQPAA
Chain of human C3b (human) (P01024 749-1663, chain 2 of 2): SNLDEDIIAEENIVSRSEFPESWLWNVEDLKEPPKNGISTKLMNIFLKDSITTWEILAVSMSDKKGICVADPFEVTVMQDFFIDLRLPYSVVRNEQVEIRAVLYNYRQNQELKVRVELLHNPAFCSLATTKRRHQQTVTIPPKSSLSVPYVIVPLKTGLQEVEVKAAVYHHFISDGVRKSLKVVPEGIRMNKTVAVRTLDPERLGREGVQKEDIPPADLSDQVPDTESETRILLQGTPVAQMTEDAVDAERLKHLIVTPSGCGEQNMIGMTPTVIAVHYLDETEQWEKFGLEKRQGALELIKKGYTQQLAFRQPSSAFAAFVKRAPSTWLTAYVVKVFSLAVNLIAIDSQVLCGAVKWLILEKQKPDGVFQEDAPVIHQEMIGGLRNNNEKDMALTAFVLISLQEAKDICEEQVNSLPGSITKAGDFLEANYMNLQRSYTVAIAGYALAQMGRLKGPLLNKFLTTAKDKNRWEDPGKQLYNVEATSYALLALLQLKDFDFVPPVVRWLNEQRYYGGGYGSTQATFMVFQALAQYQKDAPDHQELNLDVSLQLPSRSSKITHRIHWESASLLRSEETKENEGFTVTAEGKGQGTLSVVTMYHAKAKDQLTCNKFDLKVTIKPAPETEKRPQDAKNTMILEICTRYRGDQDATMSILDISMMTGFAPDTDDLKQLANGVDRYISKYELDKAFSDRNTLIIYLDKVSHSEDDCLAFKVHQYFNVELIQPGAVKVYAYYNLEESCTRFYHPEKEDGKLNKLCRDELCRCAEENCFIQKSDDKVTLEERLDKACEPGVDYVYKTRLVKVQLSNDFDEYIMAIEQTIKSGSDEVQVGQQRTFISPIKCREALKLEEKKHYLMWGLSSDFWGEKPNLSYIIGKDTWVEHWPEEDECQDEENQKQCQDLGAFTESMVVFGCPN

The next test addresses human C3d (human) (UniProt P01024). The description is as above.
For test [3], the target named is human C3b (human) (UniProt P01024). The description is as above. This is another data set of the same source.
The target in another test is C3b C3b (Homo sapiens) (UniProt P01024). The note with it: cited from earlier work.
Chain of C3b C3b (Homo sapiens) (P01024 566-670): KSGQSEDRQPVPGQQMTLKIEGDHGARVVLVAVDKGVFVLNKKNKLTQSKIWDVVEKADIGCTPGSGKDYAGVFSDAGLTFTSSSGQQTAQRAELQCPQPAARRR
The next test deals with C3d C3d (Homo sapiens) (UniProt P01024). The note with it: cited from earlier work.
Chain of C3d C3d (Homo sapiens) (P01024 1002-1303): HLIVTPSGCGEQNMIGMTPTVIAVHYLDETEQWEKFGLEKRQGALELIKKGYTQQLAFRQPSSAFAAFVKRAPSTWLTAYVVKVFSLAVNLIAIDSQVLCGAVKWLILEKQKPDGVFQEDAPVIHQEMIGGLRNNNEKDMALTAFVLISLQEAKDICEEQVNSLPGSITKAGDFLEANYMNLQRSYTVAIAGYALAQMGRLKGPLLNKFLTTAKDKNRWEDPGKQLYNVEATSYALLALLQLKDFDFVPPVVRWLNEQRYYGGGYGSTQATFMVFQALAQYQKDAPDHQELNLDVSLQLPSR
Test [4] concerns the target His6-SUMO-tagged D39 PspC residues 37-140 (Streptococcus pneumoniae D39). Kind of test: SPR; PspC-derived proteins immobilised via N-terminal His6-SUMO tags on a Ni2+-loaded Biacore NTA chip (~150 RU); FH, rFH or rFH fragments flowed over (180 s, 100 μl/min, 1500 s dissociation); 25°C; 10 mM HEPES, 150 mM NaCl, 0.05% P20, pH 7.4, 50 μM EDTA; 1:1 binding model; equilibrium method for FH 8–9.

Test [5] concerns the target (D39)PspCN, D39 PspC residues 37-140 after removal of the His6-SUMO tag (Streptococcus pneumoniae D39). Kind of test: SEC-MALS; 4.6 μM in PBS of FH, PspCN or a 1:1 complex; Superose12 10/300 GL column, 0.4 ml/min. A general note: In gel filtration, larger molecules generally elute earlier.

Chain of human C3d (human) (P01024 1002-1303): as above

In test [1], “(D39)PspCN, D39 PspC residues 37-140 after removal of the His6-SUMO tag (domain or fragment)” registered an inhibition of acidified-serum lysis of PNH-like (AET-treated) human erythrocytes by increasing concentrations of (D39)PspCN; FH of the serum of 28 nM.

Consider “(D39)PspCN:FH complex (plasma-derived FH) (from UniProt P08603 19-1231)”, for which the Kd in the test with human C3b (human) [2] turned out to be 160 nM; in the test with human C3d (human), 2300 nM. The ratio of KD values for FH versus FH-PspCN in the test with human C3b (human) [2] worked out at 2.04.

Consider “(D39)PspCN:FH(D1119G) complex (from UniProt P08603 19-1231)”, for which the values for the Kd with human C3b (human) [2] and with human C3b (human) [3] were 320 nM and 330 nM, respectively.

In the case of “(D39)PspCN:rFH complex (from UniProt P08603 19-1231)”, the results for the Kd with human C3b (human) [2] and with human C3d (human) were 280 nM and 2200 nM, respectively.

Regarding “(Tigr4)PspC_(37–179):FH complex (from UniProt P08603 19-1231)”, the Kd with human C3b (human) [2] worked out at 280 nM; with human C3d (human) it was 1200 nM.

As for “Complement factor H CCP 19-20 (from UniProt P08603)”, the Kd with C3b C3b (Homo sapiens) and with C3d C3d (Homo sapiens) was 2000 nM in each case.

For FH 8–9 (domain or fragment), the Kd in test [4] stood at 30 nM.

In test [4], FH 8–15 (domain or fragment) showed a dissociation constant Kd of 1 nM.

For “plasma-derived human complement factor H (from UniProt P08603 19-1231) (natural protein)”, the dissociation over 30 min (off-rate) (% over 30 min) in test [4] is less than 0.2. For the same substance, the stoichiometry N in test [5] was 1 FH:PspCN.
